In patent US10077436B2, “Beta-glucosidase enzymes for increased biomass saccharification” (Edeniq, Inc., priority 2013, dated 2018):
Numbering of substitutions follows the chain as printed. Names may count otherwise.

B1: yEdQ885-BG: improved (modified) in-house beta-glucosidase mutant secreted by yeast strain yEdQ885 (protein)
chain: MRFTLIEAVALTAVSLASADELAYSPPYYPSPWANGQGDWAQAYQRAVDIVSQMTLDEKVNLTTGTGWELELCVGQTGGVPRLGVPGMCLQDSPLGVRDSDYNSAFPAGMNVAATWDKNLAYLRGKAMGQEFSDKGADIQLGPAAGPLGRSPDGGRNWEGFSPDPALSGVLFAETIKGIQDAGVVATAKHYIAYEQEHFRQAPEAQGFGFNISESGSANLDDKTMHELYLWPFADAIRAGAGAVMCSYNQINNSYGCQNSYTLNKLLKAELGFQGFVMSDWAAHHAGVSGALAGLDMSMPGDVDYDSGTSYWGTNLTISVLNGTVPQWRVDDMAVRIMAAYYKVGRDRLWTPPNFSSWTRDECGYKYYYVSEGPFEKVNQYVNVQRNHSELIRRIGADSTVLLKNDGALPLTGKERLVALIGEDAGSNPYGANGCSDRGCDNGTLAMGWGSGTANFPYLVTPEQAISNEVLKHKNGVFTATDNWAIDQIEALAKTASVSLVFVNADSGEGYINVDGNLGDRRNLTLWRNGDNVIKAAASNCNNTIVVIHSVGPVLVNEWYDNPNVTAILWGGLPGQESGNSLADVLYGRVNPGAKSPFTWGKTREAYQDFLVTEPNNGNGAPQEDFVEGVFIDYRGFDKRNETPIYEFGYGLSYTTFNYSNLEVQVLSAPAYEPASGETEAAPTFGEVGNASDYLYPSGLQRITKFIYPWLNGTDLEASSGDASYGQDSSDYLPEGATDGSAQPILPAGGGPGGNPRLYDELIRVSVTIKNTGKVAGDEVPQLYVSLGGPNEPKIVLRQFERITLQPSEETKWSTTLTRRDLANWNVEKQDWEITSYPKMVFVGSSSRKLPLRASLPTVH
modifications: synthetic mutant beta-glucosidase (BG), BG acid/base mutant #8, yEdQ885 -> Y363C/Y375F/A446A/V498V/G510G/Y560Y/Y610F
B2: yEdQ745-BG: wild type Aspergillus niger beta-glucosidase (Accession CAB75696.1, SEQ ID NO:2) secreted by yeast strain yEdQ745 (protein)
chain: B1 chain with C363Y, F375Y, F610Y
modifications: Aspergillus niger; wild type beta-glucosidase (BG)

Columns and labels:
Type in all cases: biochemical
[1] = BG activity assay / kinetics using pNPG substrate; conditions: all conditions except initial glucose 36 g/L
Procedure: BG activity assay using pNPG is one of the two commonly used standard assays to measure BG activity, which utilizes hydrolysis of p-nitrophenyl-β-D-glucopyranoside (pNPG) by BG into a yellow colored product, p-nitrophenol (pNP), that has a strong absorbance at 405 nm. One pNPG unit is defined as the amount of enzyme that produces 1 μmol of pNP per min. Briefly, to determine BG activity, 25 μL of diluted enzyme in 200 mM sodium acetate buffer (pH 5.0) was mixed with 25 μL of the same buffer and 25 μL of RO water (or glucose solution for the kinetic study) and the mixture was preincubated at 50° C. for 5 min. […] The reaction was then terminated by adding 100 μL of 0.25 M sodium carbonate, and the amount of pNP produced was determined by measuring absorbance at 405 nm using a predetermined calibration curve. […]
To determine the kinetic properties, a competitive inhibition mechanism was hypothesized as proposed in the literature (Chauve et al, 2010; Krogh et al, 2010). […] The turnover number, Kcat, can be calculated by Equation (2), where [Et] is the total amount of enzyme.
Conventionally, linearization methods can be used to determine the kinetic parameters based on Equation (1). […] Thus, Vmax, Km and Ki can be determined simultaneously from this fitting process, and Km/Ki can then be calculated. Kcat can be obtained by Equation (2) and Kcat/Km can be calculated accordingly.

[2] = BG (cellobiase) activity assay / kinetics using cellobiose substrate, HPLC
Procedure: BG activity assay using cellobiose is the other standard assay to measure BG or cellobiase activity, which utilizes hydrolysis of cellobiose by cellobiase into two molecules of glucose, the last step of enzymatic hydrolysis of cellulose. One cellobiase unit (commonly termed as CBU) is defined as the amount of enzyme that converts […] of cellobiose or produces 2 μmol of glucose per min. Briefly, to determine BG activity, 25 μL of diluted enzyme in 50 mM citrate buffer (pH 4.8) equilibrated to 50° C. was mixed with 25 μL cellobiose (or cellobiose/glucose mixture for the kinetic study) to start the reaction. The mixture was incubated at 50° C. for 10 min, and the reaction was terminated by incubating the mixture at 99° C. for 5 min. Different methods are available to measure the glucose produced in the assays. For the kinetic study, HPLC was used. […]
The specific activity used here was determined by the initial velocity approach that is required by implementing Michaelis-Menten model (Copeland, 2000). The specific activity was determined by measuring consumption of cellobiose in the first 10 min of reaction and was expressed as μmol min^−1 mg^−1, where mg^−1 means per mg of total protein. The relative activity was determined based on the maximum activity obtained in the absence of initial glucose inhibition.

[3] = BG supplementation of Celluclast in 48-hour saccharification of filter paper; conditions: for optimal CBU/FPU ratio (optimal BG dosage): 10% solid loading, 20% Celluclast loading
Procedure: Experimental conditions in this example using filter paper substrate was 10% solid loading and 20% Celluclast loading based on glucan content. Different BG dosage based on CBU:FPU (BG activity/total cellulase activity) was tested.
Enhancement of glucose release (Equation 5) and lift of sugar conversion (Equation 6) was compared among various BGs at the optimal dosage over time in FIG. 8.

[4] = BG supplementation of commercial cellulase preparations in corn stover saccharification; conditions: added to commercial enzyme preparation, 50° C.
Description: In this experiment, 10% CTecII per gram glucan and 0.5% HtecII per mass solids was used as a control level for high saccharification of pretreated biomass. The relatively low enzyme dose of 3% Genencor® Trio per gram glucan was used as a base enzyme level to observe increases in saccharification from supplementation with BG enzymes. Enzyme doses of 0.5%, 1% and 2% of HtecII were used in a parallel set of reactions to likewise observe increases in saccharification from supplementation with concentrated extract from yEdQ745, yeast expressing wild type BG and another set of samples supplemented with commercial BG. • BG were used from two sources: wild type BG (yEdQ745) and commercial BG (Nozyme product SP-188). • Commercial cellulase preparations: Novozymes CtecII, Novozymes HtecII and Genencor® Trio. • Biomass used for the experiment: For each reaction 3 gms from Run 177 corn stover at 10% final solid concentration. • BG addition: 2 mL of wild type BG concentrated from yEdQ745 (11× concentrated) was added to the respective reaction. • Commercial BG: 1 uL/gm of biomass • Buffer: sodium citrate buffer pH5.0 was used for the reaction • Saccharification temperature: 50° C./24 and 48 hours.

specific activity towards cellobiose, comparison ([2]; all conditions tested) | Molecule | specific activity towards pNPG, comparison [1] | specific activity towards cellobiose, comparison ([2]; absence of glucose inhibition) | optimal CBU/FPU ratio (optimal BG dosage) [3] | performance in enhancing saccharification, comparison ([3]; optimal BG dosage) | enhancement of sugar release ([3]; optimal BG dosage, up to 48 h) | lift of sugar conversion ([3]; optimal BG dosage, up to 48 h) | effect of BG supplementation on glucose release / glucan to glucose conversion [4]
– | B1 | higher specific activity towards pNPG than both yEdQ745-BG (wild type) and S-BG | higher specific activity towards cellobiose than both yEdQ745-BG (wild type) and S-BG | 2 | outperformed the other three BGs | more than 50% | more than 13% | –
the lowest | B2 | – | – | 1 | – | – | – | dramatically increased
